Measurements: the DeepSol protein solubility set

Experiment: soluble on expression in E. coli; label from the status in PepcDB or PDB records

Sequence | soluble on expression in E. coli
SLQCLRFPGLALPHTRAPSPLGPTRDPVATFLETCREPGSQPAGPASLRAEYLPPSVASIKVSAELLRAALKDGHSGVPLCCATLQWLLAENAAVDVVRARALSSIQGVAPDGANVHLIVREVAMTDLCPAGPIQAVEIQVESSSLADICRAHHAVVGRMQTMVTEQAAQGSSAPDLRVQYLRQIHANHETLLREVQTLRDRLCTEDEASSCATAQRLLQVYRQLRHPSLILL | soluble
SLRETVFRNARVLDVARGAYDDGQSVVVRDGVIVAVATDAHRLAGADAREIDVAGRVLMPGLCDAHVHVTAFTPDFALLGRTAPSYVTVRAQDILQGMIGRGFTTVRDAGGADWGLAKALAEGAIVGPRLLYCGHALSQTGGHADMRGPGQHNLDQCLCCAGLGQVCDGVPEMRRACREEIRKGATHLKLMVSGGVASPTDRIDSTQFALDELRAACEEAEAANIPVMAHAYTGRAAVRALEAGVSSIEHGNLIDQAAIDTLLRLDRWLVPTLATYHALAAEGVEAGMPAELNKKVYTVLEAGTEALRMAAKAGVKLVYGSDLLGTMQRHQLTEFAIRAVVQDPIDILRAATTQAAALFRMEDRIGAVRAGYLADLLIVDGDVLHSVAPWSAPEETIKMVMKDGEILVSR | soluble
SLRLLLELKALNSIDKKQLSNYLIQGFIYNILKNTEYSWLHNWKKEKYFNFTLIPKKDIIENKRYYLIISSPDKRFIEVLHNKIKDLDIITIGLAQFQLRKTKKFDPKLRFPWVTITPIVLREGKIVILKGDKYYKVFVKRLEELKKYNLIKKKEPILEEPIEISLNQIKDGWKIIDVKDRYYDFRNKSFSAFSNWLRDLKEQSLRKYNNFCGKNFYFEEAIFEGFTFYKTVSIRIRINRGEAVYIGTLWKELNVYRKLDKEEREFYKFLYDCGLGSLNSMGFGFVNTKKNSAR | soluble
SLSERTFNWKNKDIRAQVDVVDSKLLPTLLLRNALVLNPYVKQWLKKNIWIYQDRIVYVGHELPNRAEEIHTIDCEGKYIVPGYIEPHAHPFQIYNPQTLAEYVSQYGTTTFVNDNLFLLLQSGKKKALTILNELKKQPVQYFWWSRYDLQTEVLNEDHVLPFDVRKQWIEHPDVIQGGEMTGWPRLVDGDDLMLHCMQATKKQRKRIEGHFPGASDKTLTKMKLFGADCDHEAMTGDEVMRRLELGYYVSLRNSSIRPDVRKILQELHEKGFRYYDHFFYTTDGATPNFYKGGMTNELIRIALEEGVPAIDAYNMASFNIAKYYQMDDYLGVVGPGRLASLNILEDPLNPNPVTVLSKGTILRENGCDLKAFTKTDWHKGGLVPLELSYDMTMDDLQFSMPMGVKMRNAVIMEPYMIEIDNSMEQLSFDHDESYLTMLDRHGKWRVNTMIKGFASSVQGFVSSFTTTGDIVAIGKNKADMLLAFARMKEIGGGIVLAENGNILHEIPLALCGCASSEAYEDVLEKEQKLRDLLTERGYEFCDPIYTLLFLQSTHLPYIRITPRGIFDVMKKTVLFPSIMR | soluble
SLSMKLLIADDEDTIRNGIAKYIKLHTDRFSQIYLAENGQQALDIILQYQPDMMLLDVQMPLKTGLEVLQEAQKLSLVPKTIILSGYDDFEYARKALRYGAKDYLLKPCRSSEILEAINKLVQEQLGTKEG | not soluble
SLSRRKPNPVIVADIRQAEGALAEIATIDRKVGEIEAQMNEAIDAAKARASQKSAPLLARRKELEDGVATFATLNKTEMFKDRKSLDLGFGTIGFRLSTQIVQMSKITKDMTLERLRQFGISEGIRIKEDVNKEAMQGWPDERLEMVGLKRRTTDAFYIEINREEVADTAA | soluble
SLTAAENIQEQLYPAPIKTVEEGSPAARAGVRPGDVLLRVNGQPVTDVLAYRHQLERGVVTLEVARPHEAPRVMTGVAGTAQDHHRLMLPQPPSLDETLTFTVEWEDPGLDFEEVLFDGIKKCANKCDFCYVHQMPRGFRKSLYIMDDDYRLSFLYGSFVTLTNLTEGDINRILDENLSPLYVSVHTANQDLRQDMMKWWKLKVKDPQAVQIREMIERLESIDLYTQIVLVPERNDRENLDETVEYLSSRPNVISAAVVPIGLTAHRTNLPDVRTFTPEEAQDTLRRLNVWRRKFLAERGTRFIFPSDELYLLAGEPLPTEEEYEGFPMLENGVGMIRDFLTEALPPLPAALPEPRKVILGTGLLFADSLARAIEPLRQIEGLDIEVRAIENKTFGKVTTVAGLLTGRCFRHAVQPGEADLLIVPPTTLRYGTELMIDDTSLGELRRELKMDVRAGGATLGELARVVLEGAQSSGHQFGMSAHAVKDSGRDDVAPSASRAQGGAAPEESLEEDVAESGMHGRGQA | soluble
SLVKLSTPLRVVTTLPHQPGRTGYIVFKKVPESFRCDSIASFYRRVRRSMGLREAVVFLTAAEVDRPLHEVIDEPETHIIATVGLKPPACPGGTAGAPRPGTINIAVATSAGLSRAGAIDLLRVVAEAKAAAAAEALLPCLHRATGTATDAIAVLHTPGATDFSGFYTRLGGLVGRSLYFALVDAAVARRGPDSLLRALTGMSMEGLLELFRRVYMQSPIPGVPVEEALGRAGRMLERMMRDPNVAALLIAARELDLHGSAGAIPGLSRSGYKGDSKAIVADELLAAALAEYLAGFKGLLATIWVEKLKSMGLADAGLPMFMDDMVSAVVGSLVSRLHDEVREG | soluble
SLVYDSNNNLIADLGAEKRESISSDSIPMKLVNAVTSIEDHRFFKHRGVDIYRIIGAAWSNLLHKSTQGGSTLDQQLIKLAYFSTKESDQTLKRKAQEVWLSLQMEKKYTKEEILTFYVNKVYMGNGNYGMRTAAKSYYGKDLKDLSIAQLATLAGIPQAPTQYDPYAQP | not soluble
SLYAISISERTLEKVNAIIESEIKPNAYLASGDLLVHTSRLFMDTPYQANTLVHHSDLPYALVVNFDGMDCFTYLDYVVALSQASDTPSFFSSLMNIRYKKSHIHFYDRKHFFSDWYALSPQIAIDITEKMSPDAITIPKQLNQKVEGGEYIQGLGVIPRMITYIPSDKITQSVLDNLQNGDLVGVYSPKIGLDVTHTGIIVKENNQILYRNASSLSKYNKVVDLPFMDYIRSKPGIVVLRVE | soluble
SMALYRVVLLGDPGVGKTSLASLFAGKQERDLHEQLGEDVYERTLTVDGEDTTLVVVDTWEAEKLDKSWSQESCLQGGSAYVIVYSIADRGSFESASELRIQLRRTHQADHVPIILVGNKADLARCREVSVEEGRACAVVFDCKFIETSATLQHNVAELFEGVVRQLRLRRRDSA | soluble
SMDTNADIYDQTASTFFPNGEAMWKKMVEDLKKAEKFIFLEYYIIEEGLMWNRILDILEQKVAQGVEVKMLYDDIGCMATLTGDYAHRLRQLGIEAHKFNKVIPRLTVAYNNRDHRKILIVDGQIAYTGGVNLADEYINHVERFGYWKDSGIRLDGLAVKALTRLFLTTWYINRGEISDFDQYH | not soluble
SMGSDDEEQEDPADYCKGGYHPVKIGDLFNGRYHVIRKLGWGHFSTVWLCWDMQGKRFVAMKVVKSAQHYTETALDEIKLLKCVRESDPSDPNKDMVVQLIDDFKISGMNGIHVCMVFEVLGHHLLKWIIKSNYQGLPVRCVKSIIRQVLQGLDYLHSKCKIIHTDIKPENILMCVDDAYVRRMAAEATEWQKAGAPPPSGSAVSTAPAADLLVNPLDPRNADKIRVKIADLGNACWVHKHFTEDIQTRQYRSIEVLIGAGYSTPADIWSTACMAFELATGDYLFEPHSGEDYSRDEDHIAHIIELLGSIPRHFALSGKYSREFFNRRGELRHITKLKPWSLFDVLVEKYGWPHEDAAQFTDFLIPMLEMVPEKRASAGECLRHPWLNS | soluble
SMKFQARVLTLYPEMFPGFLGCSLAGQALKQGIWSLETVQIRDFALDKHHSVDDTPAGGGAGMVMRADVLAAALDSCPNDSPRLLMSPRGRLLNQAYARSLARSSGVTLVCGRFEGVDERIIEARELEEVSIGDYILSGGETAALVLLDAIVRLLPGVMGNEISAKCESFENGLLEHPQYTRPAVFEGRGIPPVLTSGHHKAIANWRQQQAESLTRQRRPDLYALYNKNRQKT | soluble
SMSKRTFSTVLPQIDTTGQLFVQTRKGQEVLIKVKHFMKQHILPAEKEVTEFYVQNENSVDKWGKPLVIDKLKEMAKVEGLWNLFLPAVSGLSHVDYALIAEETGKCFFAPDVFNCQAPDTGNMEVLHLYGSEEQKKQWLEPLLQGNITSCFCMTEPDVASSDATNIECSIQRDEDSYVINGKKWWSSGAGNPKCKIAIVLGRTQNTSLSRHKQHSMILVPMNTPGVKIIRPLSVFGYTDNFHGGHFEIHFNQVRVPATNLILGEGRGFEISQGRLGPGRIHHCMRTVGLAERALQIMCERATQRIAFKKKLYAHEVVAHWIAESRIAIEKIRLLTLKAAHSMDTLGSAGAKKEIAMIKVAAPRAVSKIVDWAIQVCGGAGVSQDYPLANMYAITRVLRLADGPDEVHLSAIATMELRDQAKRLTAKI | soluble
SNAAKPLPKEMEDFVQSSGENGVVVFSLGSMVSNMTEERANVIASALAQIPQKVLWRFDGNKPDTLGLNTRLYKWIPQNDLLGHPKTRAFITHGGANGIYEAIYHGIPMVGIPLFADQPDNIAHMKARGAAVRVDFNTMSSTDLLNALKRVINDPSYKENVMKLSRIQHD | soluble
SNAEELQALVDNIPAAIYHLDVSGQATIRFRPPAFLKTLVSEHAGTTRLNTLSMIHHDDRHMLSNAYSKLREAKHSLTLVYRIVTPEGKLHWIEDHMRSSFSDDGLFSGIDGILCEVT | soluble
SNAMHILVTGFAPFDNQNINPSWEAVTQLEDIIGTHTIDKLKLPTSFKKVDNIINKTLASNHYDVVLAIGQAGGRNAITPERVAINIDDARIPDNDDFQPIDQAIHLDGAPAYFSNLPVKAMTQSIINQGLPGALSNSAGTFVCNHTLYHLGYLQDKHYPHLRFGFIHVPYIPEQVIGKPDTPSMPLEKIVAGLTAAIEAISNDEDLHLALGTTE | soluble
SNAMKESNHLMDTPYSYLIRSIGMKLKTSADARLAELGLNSQQGRMIGYIYENQESGIIQKDLAQFFGRRGASITSMLQGLEKKGYIERRIPENNARQKNIYVLPKGAALVEEFNNIFLEVEESITKGLTKDEQKQLMSILIKVNRSM | soluble
SNAMKTLFLQYPACSTCQKAKKWLIENNIEYTNRLIVDDNPTVEELKAWIPLSGLPVKKFFNTSGVVYKELKLSSKLPTMTEEEQIALLATNGKLVKRPLVVTERFVLVGFKPEEWEKLK | soluble
SNAMKWKKSLAGLSSYKPGKREEEVMAELGLTKITKLSSNENPLGTSKKVAAIQANSSVETEIYPDGWASSLRKEVADFYQLEEEELIFTAGVDELIELLTRVLLDTTTNTVMATPTFVQYRQNALIEGAEVREIPLLQDGEHDLEGMLNAIDEKTTIVWICNPNNPTGNYIELADIQAFLDRVPSDVLVVLDEAYIEYVTPQPEKHEKLVRTYKNLIITRTFSKIYGLASARVGYGIADKEIIRQLNIVRPPFNTTSIGQKLAIEAIKDQAFIGECRTSNANGIKQYEAFAKRFEKVKLYPANGNFVLIDLGIEAGTIFSYLEKNGYITRSGAALGFPTAVRITIGKEEDNSAVIALLEKLL | soluble
SNAMLHIDDAMIEDAVTPQAAQEVLHAAFLDFGRGSAAMQRRVRTEAGGVKLSTLGAVIPGQGVAGAKVYTTIKGQFQFVILLFSAADGRPLATCDAGTLTRKRTAACTVLAAGALARPRSSVLGLFGAGTQGAEHAAQLSARFALEAILVHDPYASPEILERIGRRCGVPARMAAPADIAAQADIVVTATRSTTPLFAGQALRAGAFVGAIGSSLPHTRELDDEALRRARAVVVEWREQTLSEAGDLVLAAPDTGLDAKVVELADVLAGRAAARQADEDIVIYKSVGVGLEDVALAGYAYRRLAAQRGWPAP | soluble
